Results published in the supplement of paper PMC9112550, “Optimization of the antimicrobial peptide Bac7 by deep mutational scanning” (BMC Biology, 2022).
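Note: peptides expressed intracellularly from a pBAD plasmid library in pooled LB shake-flask culture, induced with 0.3% L-arabinose, DNA abundance read by NGS, three biological replicates, DESeq2 with apeglm shrinkage.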

What follows are sequences tested on Escherichia coli TOP10 (assay: shrunken log2 fold change of peptide-encoding DNA abundance (4.5 h post-induction vs induction); higher = less antimicrobial activity (less host growth inhibition)). Details: time post-induction: 4.5 h; library: site-saturation at positions 5, 18, 19, 20.
With RRIRPRPPRLPRPRPRPFIEPRP the “shrunken log2 fold change” value was -0.245.
In the case of RRIRFRPPRLPRPRPRPFIYPRP, the “shrunken log2 fold change” value is reported as -0.714.
RRIRIRPPRLPRPRPRPQLLPRP was tested, and the “shrunken log2 fold change” value was -0.0818.
With RRIRNRPPRLPRPRPRPGGAPRP the “shrunken log2 fold change” value was 0.283.
With RRIRKRPPRLPRPRPRPLVWPRP the “shrunken log2 fold change” value was 0.298.
With RRIRSRPPRLPRPRPRPWRTPRP the “shrunken log2 fold change” value was 0.311.
With RRIRKRPPRLPRPRPRPKVYPRP the “shrunken log2 fold change” value was -0.124.
For RRIRWRPPRLPRPRPRPFEMPRP, the “shrunken log2 fold change” value was -0.116.
In the case of RRIRRRPPRLPRPRPRPLWLPRP, the “shrunken log2 fold change” value is reported as -0.107.
With RRIRHRPPRLPRPRPRPRTRPRP the “shrunken log2 fold change” value was 0.476.
For RRIRMRPPRLPRPRPRPRRKPRP, the “shrunken log2 fold change” value was 0.416.
With RRIRERPPRLPRPRPRPDIHPRP the “shrunken log2 fold change” value was -0.512.
With RRIRCRPPRLPRPRPRPPLQPRP the “shrunken log2 fold change” value was 0.228.
RRIRHRPPRLPRPRPRPPGVPRP was tested, and the “shrunken log2 fold change” value was 0.0725.
With RRIRSRPPRLPRPRPRPTSRPRP the “shrunken log2 fold change” value was -0.0504.
For RRIRYRPPRLPRPRPRPVNYPRP, the “shrunken log2 fold change” value was -0.458.
With RRIRARPPRLPRPRPRPYQQPRP the “shrunken log2 fold change” value was -0.316.
With RRIRNRPPRLPRPRPRPMFYPRP the “shrunken log2 fold change” value was -0.166.
For RRIRVRPPRLPRPRPRPEMAPRP, the “shrunken log2 fold change” value was 0.311.
With RRIRVRPPRLPRPRPRPECHPRP the “shrunken log2 fold change” value was 0.241.
With RRIRARPPRLPRPRPRPTPKPRP the “shrunken log2 fold change” value was 0.956.
For RRIRGRPPRLPRPRPRPGLSPRP, the “shrunken log2 fold change” value was 1.12.
With RRIRQRPPRLPRPRPRPDQYPRP the “shrunken log2 fold change” value was -0.0114.
For RRIRTRPPRLPRPRPRPMTIPRP, the “shrunken log2 fold change” value was -0.137.
For RRIRQRPPRLPRPRPRPHSLPRP, the “shrunken log2 fold change” value was 0.178.
In the case of RRIRPRPPRLPRPRPRPVRAPRP, the “shrunken log2 fold change” value is reported as 0.622.
In the case of RRIRDRPPRLPRPRPRPPNLPRP, the “shrunken log2 fold change” value is reported as -0.172.
RRIRARPPRLPRPRPRPIAQPRP was tested, and the “shrunken log2 fold change” value was 0.459.
With RRIRFRPPRLPRPRPRPVNKPRP the “shrunken log2 fold change” value was -0.492.
With RRIRSRPPRLPRPRPRPIMWPRP the “shrunken log2 fold change” value was -0.109.
RRIRWRPPRLPRPRPRPYMQPRP was tested, and the “shrunken log2 fold change” value was -0.422.
With RRIRGRPPRLPRPRPRPCTTPRP the “shrunken log2 fold change” value was 0.141.
RRIRFRPPRLPRPRPRPAQTPRP was tested, and the “shrunken log2 fold change” value was 0.0962.
With RRIRLRPPRLPRPRPRPCPMPRP the “shrunken log2 fold change” value was -0.444.
With RRIRWRPPRLPRPRPRPLWKPRP the “shrunken log2 fold change” value was -0.128.
RRIRPRPPRLPRPRPRPYHRPRP was tested, and the “shrunken log2 fold change” value was -0.00884.
For RRIRVRPPRLPRPRPRPLPEPRP, the “shrunken log2 fold change” value was 0.423.
RRIRVRPPRLPRPRPRPQKNPRP was tested, and the “shrunken log2 fold change” value was -0.217.
RRIRDRPPRLPRPRPRPHSNPRP was tested, and the “shrunken log2 fold change” value was 0.0359.
In the case of RRIRQRPPRLPRPRPRPEFLPRP, the “shrunken log2 fold change” value is reported as 0.025.
In the case of RRIRDRPPRLPRPRPRPNSNPRP, the “shrunken log2 fold change” value is reported as -0.573.
RRIRMRPPRLPRPRPRPGMDPRP was tested, and the “shrunken log2 fold change” value was 0.32.
For RRIRDRPPRLPRPRPRPWWFPRP, the “shrunken log2 fold change” value was -0.00226.
RRIRERPPRLPRPRPRPHYNPRP was tested, and the “shrunken log2 fold change” value was -1.12.
RRIRARPPRLPRPRPRPVCPPRP was tested, and the “shrunken log2 fold change” value was 0.139.
For RRIRIRPPRLPRPRPRPQANPRP, the “shrunken log2 fold change” value was 0.00435.
For RRIRCRPPRLPRPRPRPHHAPRP, the “shrunken log2 fold change” value was 0.0208.
For RRIRRRPPRLPRPRPRPSGLPRP, the “shrunken log2 fold change” value was 0.00401.
With RRIRIRPPRLPRPRPRPAMEPRP the “shrunken log2 fold change” value was 0.0199.
RRIRLRPPRLPRPRPRPCMFPRP was tested, and the “shrunken log2 fold change” value was -0.431.
For RRIRHRPPRLPRPRPRPYSQPRP, the “shrunken log2 fold change” value was -0.177.
With RRIRLRPPRLPRPRPRPYYTPRP the “shrunken log2 fold change” value was -0.76.
In the case of RRIRRRPPRLPRPRPRPTGCPRP, the “shrunken log2 fold change” value is reported as 0.0105.
RRIRFRPPRLPRPRPRPSTHPRP was tested, and the “shrunken log2 fold change” value was -0.569.
For RRIRIRPPRLPRPRPRPFWVPRP, the “shrunken log2 fold change” value was -0.2.
In the case of RRIRRRPPRLPRPRPRPFMNPRP, the “shrunken log2 fold change” value is reported as 0.0829.
RRIRQRPPRLPRPRPRPNWTPRP was tested, and the “shrunken log2 fold change” value was -0.00963.
In the case of RRIRFRPPRLPRPRPRPMCSPRP, the “shrunken log2 fold change” value is reported as -0.687.
In the case of RRIRTRPPRLPRPRPRPDGMPRP, the “shrunken log2 fold change” value is reported as 0.0749.
For RRIRVRPPRLPRPRPRPVEGPRP, the “shrunken log2 fold change” value was 0.112.
For RRIRQRPPRLPRPRPRPNRWPRP, the “shrunken log2 fold change” value was -0.0161.
For RRIRDRPPRLPRPRPRPMKRPRP, the “shrunken log2 fold change” value was 0.108.
With RRIRTRPPRLPRPRPRPFRFPRP the “shrunken log2 fold change” value was -0.00476.
RRIRKRPPRLPRPRPRPPQLPRP was tested, and the “shrunken log2 fold change” value was 0.488.
RRIRLRPPRLPRPRPRPLGCPRP was tested, and the “shrunken log2 fold change” value was 0.0856.
With RRIRWRPPRLPRPRPRPFDKPRP the “shrunken log2 fold change” value was -0.012.
In the case of RRIRMRPPRLPRPRPRPVMEPRP, the “shrunken log2 fold change” value is reported as -0.00102.
For RRIRRRPPRLPRPRPRPWNIPRP, the “shrunken log2 fold change” value was -0.0317.
With RRIRLRPPRLPRPRPRPVTTPRP the “shrunken log2 fold change” value was -0.216.
With RRIRRRPPRLPRPRPRPLEDPRP the “shrunken log2 fold change” value was -0.0161.
With RRIRLRPPRLPRPRPRPACKPRP the “shrunken log2 fold change” value was 0.00454.
For RRIRMRPPRLPRPRPRPEFHPRP, the “shrunken log2 fold change” value was 0.0755.
In the case of RRIRTRPPRLPRPRPRPIGWPRP, the “shrunken log2 fold change” value is reported as 0.6.
RRIRHRPPRLPRPRPRPVRFPRP was tested, and the “shrunken log2 fold change” value was 0.106.
For RRIRTRPPRLPRPRPRPAIWPRP, the “shrunken log2 fold change” value was 0.238.
